Results as given in article PMC9482650, “Quantitative fragmentomics allow affinity mapping of interactomes” (Nature Communications, 2022).

What was measured:
Experiment in all cases: holdup assay
Set-up in all cases: key: below the threshold = too weak to quantify, mostly under pKd 3.1 to 4
Details in all cases: plain residues with an end cap or a label only (N-terminal biotin on a linker: ado-ado)
[1] = biological target: CASK, O14936
[2] = biological target: T1, LNX2_2, Q8N448
T1 sequence (Q8N448 334-432, limits assumed, looked up): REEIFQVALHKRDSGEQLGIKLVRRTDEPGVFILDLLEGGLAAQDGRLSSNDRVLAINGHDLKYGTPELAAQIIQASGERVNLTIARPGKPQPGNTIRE

[3] = biological target: T2, DFNB31_3, Q9P202
T2 sequence (Q9P202 811-907, limits assumed, looked up): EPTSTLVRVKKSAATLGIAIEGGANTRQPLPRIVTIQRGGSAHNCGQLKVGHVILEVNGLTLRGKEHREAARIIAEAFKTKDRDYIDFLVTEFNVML

[4] = biological target: Inadl_8, Q8NI35
[5] = biological target: GRIP2_6, Q9C0E4
[6] = biological target: T3, MPP2, Q14168
T3 sequence (Q14168 180-250, limits assumed, looked up): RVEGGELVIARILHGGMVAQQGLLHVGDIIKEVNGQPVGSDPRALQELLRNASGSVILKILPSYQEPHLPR

[7] = biological target: MAGI3_2, Q5TCQ9
[8] = biological target: TJP1_3, Q07157
[9] = biological target: T4, PDZD7_3, Q9H5P4
T4 sequence (Q9H5P4 857-944, limits assumed, looked up): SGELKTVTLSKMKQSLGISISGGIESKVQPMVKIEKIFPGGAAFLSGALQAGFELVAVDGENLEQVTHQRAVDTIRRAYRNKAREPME

[10] = biological target: T5, APBA3_1, O96018
T5 sequence (O96018 389-490, limits assumed, looked up): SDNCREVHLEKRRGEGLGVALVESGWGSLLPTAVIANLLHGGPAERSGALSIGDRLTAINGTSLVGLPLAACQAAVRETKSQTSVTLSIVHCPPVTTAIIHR

[11] = biological target: GRIP2_4, Q9C0E4
[12] = biological target: SCRIB_3, Q14160
[13] = biological target: T6, MPP6, Q9NZW5
T6 sequence (Q9NZW5 125-219, limits assumed, looked up): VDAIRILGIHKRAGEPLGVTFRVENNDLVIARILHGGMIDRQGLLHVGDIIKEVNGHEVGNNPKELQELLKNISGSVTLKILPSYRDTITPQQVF

[14] = biological target: DLG4_1, P78352
[15] = biological target: T7, SHANK1, Q9Y566
T7 sequence (Q9Y566 658-767, limits assumed, looked up): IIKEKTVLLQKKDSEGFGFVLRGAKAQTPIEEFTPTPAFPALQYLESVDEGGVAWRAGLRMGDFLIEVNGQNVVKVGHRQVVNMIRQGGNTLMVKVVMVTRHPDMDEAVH

[16] = biological target: GRIP2_5, Q9C0E4
[17] = biological target: T8, DFNB31_1, Q9P202
T8 sequence (Q9P202 135-233, limits assumed, looked up): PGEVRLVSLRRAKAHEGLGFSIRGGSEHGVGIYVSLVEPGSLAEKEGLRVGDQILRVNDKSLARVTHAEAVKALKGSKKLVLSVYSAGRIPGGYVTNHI

[18] = biological target: T9, DLG3_3, Q92796
T9 sequence (Q92796 374-475, limits assumed, looked up): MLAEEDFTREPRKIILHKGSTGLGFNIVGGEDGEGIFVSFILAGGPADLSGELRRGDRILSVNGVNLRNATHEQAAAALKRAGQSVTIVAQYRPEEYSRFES

[19] = biological target: LIMK2, P53671
[20] = biological target: Inadl_1, Q8NI35
[21] = biological target: MAGI2_6, Q86UL8
[22] = biological target: PTPN3, P26045
[23] = biological target: GRIP2_3, Q9C0E4
[24] = biological target: LDB3, O75112
[25] = biological target: MAGI2_4, Q86UL8
[26] = biological target: FRMPD3, Q5JV73
[27] = biological target: DLG4_2, P78352
[28] = biological target: T10, MPDZ_12, O75970
T10 sequence (O75970 1857-1958, limits assumed, looked up): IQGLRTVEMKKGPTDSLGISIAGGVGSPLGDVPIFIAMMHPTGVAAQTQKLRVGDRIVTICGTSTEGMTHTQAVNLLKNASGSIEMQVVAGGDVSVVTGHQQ

[29] = biological target: IL16_3, Q14005
Chain of IL16_3, Q14005 (Q14005 1107-1207): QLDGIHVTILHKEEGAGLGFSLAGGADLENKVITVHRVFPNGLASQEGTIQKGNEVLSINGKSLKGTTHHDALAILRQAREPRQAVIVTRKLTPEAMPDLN

Chain of CASK, O14936 (O14936 487-570): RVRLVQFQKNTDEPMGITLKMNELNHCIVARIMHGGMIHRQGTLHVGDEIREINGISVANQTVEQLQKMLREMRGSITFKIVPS
Chain of GRIP2_3, Q9C0E4 (Q9C0E4 238-339): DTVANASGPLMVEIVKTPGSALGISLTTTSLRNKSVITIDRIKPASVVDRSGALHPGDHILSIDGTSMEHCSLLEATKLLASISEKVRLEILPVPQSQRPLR
Chain of LDB3, O75112 (O75112 1-94): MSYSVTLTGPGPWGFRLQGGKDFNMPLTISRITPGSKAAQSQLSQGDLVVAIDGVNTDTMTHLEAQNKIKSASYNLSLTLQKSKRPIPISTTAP
Chain of MAGI2_6, Q86UL8 (Q86UL8 1141-1229): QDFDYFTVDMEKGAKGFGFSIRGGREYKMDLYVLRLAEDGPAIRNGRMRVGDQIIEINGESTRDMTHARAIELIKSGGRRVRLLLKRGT
Chain of GRIP2_5, Q9C0E4 (Q9C0E4 544-642): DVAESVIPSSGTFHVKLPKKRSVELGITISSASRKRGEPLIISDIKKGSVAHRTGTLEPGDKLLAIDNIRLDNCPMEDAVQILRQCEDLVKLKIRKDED
Chain of FRMPD3, Q5JV73 (Q5JV73 12-100): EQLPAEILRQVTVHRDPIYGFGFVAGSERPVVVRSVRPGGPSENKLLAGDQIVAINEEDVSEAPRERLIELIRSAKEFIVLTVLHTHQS
Chain of DLG4_1, P78352 (P78352 62-152): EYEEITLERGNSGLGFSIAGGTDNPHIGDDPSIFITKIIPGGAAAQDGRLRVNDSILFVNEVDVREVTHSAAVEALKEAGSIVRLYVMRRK
Chain of GRIP2_6, Q9C0E4 (Q9C0E4 648-740): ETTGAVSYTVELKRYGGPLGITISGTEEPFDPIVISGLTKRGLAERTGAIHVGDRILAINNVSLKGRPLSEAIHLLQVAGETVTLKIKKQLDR
Chain of PTPN3, P26045 (P26045 505-587): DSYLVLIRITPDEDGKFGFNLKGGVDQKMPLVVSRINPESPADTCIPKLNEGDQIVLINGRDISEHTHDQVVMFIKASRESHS
Chain of MAGI3_2, Q5TCQ9 (Q5TCQ9 398-503): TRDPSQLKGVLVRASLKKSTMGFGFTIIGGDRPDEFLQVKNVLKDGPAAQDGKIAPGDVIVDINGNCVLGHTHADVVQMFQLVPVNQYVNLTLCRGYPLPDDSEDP
Chain of Inadl_8, Q8NI35 (Q8NI35 1425-1530): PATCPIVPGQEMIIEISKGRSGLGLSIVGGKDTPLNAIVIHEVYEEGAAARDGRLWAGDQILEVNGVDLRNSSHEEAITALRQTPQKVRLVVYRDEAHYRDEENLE
Chain of MAGI2_4, Q86UL8 (Q86UL8 772-865): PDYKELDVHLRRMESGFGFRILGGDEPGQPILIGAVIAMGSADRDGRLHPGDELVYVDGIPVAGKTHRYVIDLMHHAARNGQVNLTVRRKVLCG
Chain of SCRIB_3, Q14160 (Q14160 999-1103): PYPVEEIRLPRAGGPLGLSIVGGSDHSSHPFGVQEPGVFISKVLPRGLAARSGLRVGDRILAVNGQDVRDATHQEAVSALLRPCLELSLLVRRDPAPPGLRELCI
Chain of GRIP2_4, Q9C0E4 (Q9C0E4 446-548): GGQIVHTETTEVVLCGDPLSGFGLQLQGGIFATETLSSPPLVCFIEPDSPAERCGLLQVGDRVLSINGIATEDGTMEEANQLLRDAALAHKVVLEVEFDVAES
Chain of TJP1_3, Q07157 (Q07157 416-512): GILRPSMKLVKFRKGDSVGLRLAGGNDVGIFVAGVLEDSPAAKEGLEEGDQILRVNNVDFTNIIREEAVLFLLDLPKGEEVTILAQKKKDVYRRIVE
Chain of DLG4_2, P78352 (P78352 155-259): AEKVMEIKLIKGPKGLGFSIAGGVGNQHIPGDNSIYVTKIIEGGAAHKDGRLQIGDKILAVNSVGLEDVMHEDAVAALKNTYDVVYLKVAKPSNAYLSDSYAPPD
Chain of LIMK2, P53671 (P53671 143-248): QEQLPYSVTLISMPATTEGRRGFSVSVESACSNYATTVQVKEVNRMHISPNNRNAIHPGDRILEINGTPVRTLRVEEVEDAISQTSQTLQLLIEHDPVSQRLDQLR
Chain of Inadl_1, Q8NI35 (Q8NI35 113-229): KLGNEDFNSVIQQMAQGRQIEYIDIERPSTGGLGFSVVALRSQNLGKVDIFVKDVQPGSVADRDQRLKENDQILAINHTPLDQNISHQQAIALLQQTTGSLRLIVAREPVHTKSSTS

pKd [1]	pKd [2]	pKd [3]	pKd [4]	pKd [5]	pKd [6]	pKd [7]	pKd [8]	pKd [9]	pKd [10]	pKd [11]	pKd [12]	pKd [13]	pKd [14]	pKd [15]	pKd [16]	pKd [17]	pKd [18]	pKd [19]	pKd [20]	Binder	also measured
below the threshold	5.39	3.99	3.54	3.57	3.82	4.67	below the threshold	3.88	below the threshold	below the threshold	below the threshold	below the threshold	4.35	below the threshold	below the threshold	below the threshold	4.25	below the threshold	below the threshold	NISARRFTLC [FAM167B, Q9BTA0]	pKd [21]: below the threshold; pKd [22]: 3.61; pKd [23]: below the threshold; pKd [24]: below the threshold; pKd [25]: 3.63; pKd [26]: below the threshold; pKd [27]: 4.13; pKd [28]: 3.52; pKd [29]: below the threshold
below the threshold	3.75	below the threshold	below the threshold	below the threshold	below the threshold	below the threshold	below the threshold	3.72	below the threshold	below the threshold	3.56	below the threshold	below the threshold	3.55	below the threshold	below the threshold	below the threshold	below the threshold	below the threshold	RSPVATATSC [DUSP5, Q16690]	pKd [21]: below the threshold; pKd [22]: 4.05; pKd [23]: below the threshold; pKd [24]: below the threshold; pKd [25]: below the threshold; pKd [26]: below the threshold; pKd [27]: below the threshold; pKd [28]: below the threshold; pKd [29]: below the threshold

The remaining lines, values behind:

Binder	pKd [1]	pKd [2]	pKd [3]	pKd [4]	pKd [5]	pKd [6]	pKd [7]	pKd [8]	pKd [9]	pKd [10]	pKd [11]	pKd [12]	pKd [13]	pKd [14]	pKd [15]	pKd [16]	pKd [17]	pKd [18]	pKd [19]	pKd [20]	also measured
PLPPEEESWV [GAS2L2, Q8NHY3]	below the threshold	5.07	3.99	3.8	below the threshold	below the threshold	4.38	3.63	4.32	below the threshold	below the threshold	4.99	below the threshold	4.03	4.62	below the threshold	4.46	below the threshold	below the threshold	3.55	pKd [21]: 5.88; pKd [22]: 4.75; pKd [23]: below the threshold; pKd [24]: below the threshold; pKd [25]: 4.07; pKd [26]: 3.72; pKd [27]: 4.69; pKd [28]: 4.36; pKd [29]: below the threshold
LVEEEEPMNL [HDAC7, Q8WUI4]	below the threshold	below the threshold	3.94	below the threshold	below the threshold	below the threshold	below the threshold	below the threshold	below the threshold	below the threshold	below the threshold	below the threshold	3.57	below the threshold	below the threshold	below the threshold	below the threshold	below the threshold	below the threshold	below the threshold	pKd [21]: below the threshold; pKd [22]: 4.04; pKd [23]: below the threshold; pKd [24]: below the threshold; pKd [25]: below the threshold; pKd [26]: below the threshold; pKd [27]: below the threshold; pKd [28]: below the threshold; pKd [29]: below the threshold
